Where a chain is given by its changes, count along the chain named. Where two headings read alike, the source gives them in different places. Each block holds one binder with its values, some of them ahead of it.
Key:
Experiment in all cases: BIAcore
[1] = target: T1, Recombinant human IL-17A (Peprotech AF-200-17) (human, UniProt Q16552 24-155)
[2] = target: T1, Recombinant human IL-17A (Peprotech …); remark: listed apart in the source
recombinant IL-17RA [3] = target: T2, recombinant IL-17RA (human, UniProt Q96F46 33-320)
recombinant IL-17RA [4] = target: T2, recombinant IL-17RA; remark: listed apart in the source

T1 sequence (Q16552 24-155): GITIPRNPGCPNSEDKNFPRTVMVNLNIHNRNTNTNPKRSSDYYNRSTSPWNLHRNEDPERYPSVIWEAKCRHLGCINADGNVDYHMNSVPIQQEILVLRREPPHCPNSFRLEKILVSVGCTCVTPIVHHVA

- Kd [1]: 5 nM
- Kd [2]: 5 nM
B1: clone 1.1 VH (VHH)
VHH: EVQLVESGGGLVQPGGSLRLSCAASGFTFSSYSMYWVRQAPGKGLEWVANIKQDGSEKYYVDSVKGRFTISRDNAKNSLFLQMNSLRAEDTAVYYCAKGEILPLHFDYWGQGTLVTVSS

- Kd [2]: 0.63 nM
B2: clone 1.6 VH (VHH)
VHH: B1 VHH with N50E, K58Q, F80Y, H105Y

- Kd [2]: 1 nM
B3: clone 1.10 VH (VHH)
VHH: VQLVESGGGLVQPGGSLRLSCAASGFTFSSYRMYWVRQAPGKGLEWVASIEQDGSEEYYVDSVKGRFTISRDNAKKSLFLQMNSLRAEDTAVYYCAKGEILPLYFDYWGQGTLVTVSS

- Kd (recombinant IL-17RA [3]): 6 nM
- Kd (recombinant IL-17RA [4]): 6 nM
B4: clone 2.1 VH (VHH)
VHH: QVQLVQSGAEVKKPGASVKVSCKASGYPFTSYDINWVRQATGQSLEWMGWMNPNSGDTVYAQKFQGRVTMTRNTSISTAYMELSSLRSEDTAVYFCARGRRDDWKNNYWGQGTLVTVSS

- Kd (recombinant IL-17RA [4]): 1.4 nM
B5: clone 2.2 VH (VHH)
VHH: B4 VHH with Q43R, N54T, S55N, D57N, G66D

— patent US20180002403A1 (published 2018)
